From patent US20130303441A1 (YEDA RESEARCH AND DEVELOPMENT, published 2013)
Square brackets hold non-standard residues; d marks the D form. Ends that are not written are not given here. pS = N[C@@H](COP(=O)(O)O)C(=O)O

Target: wild-type (WT) GSK-3β (human, UniProt P49841 1-420, limits assumed)
Assay: cell-based or functional assay

Chain of wild-type (WT) GSK-3β (P49841 other isoform, or with tags, fused parts or gaps limits assumed): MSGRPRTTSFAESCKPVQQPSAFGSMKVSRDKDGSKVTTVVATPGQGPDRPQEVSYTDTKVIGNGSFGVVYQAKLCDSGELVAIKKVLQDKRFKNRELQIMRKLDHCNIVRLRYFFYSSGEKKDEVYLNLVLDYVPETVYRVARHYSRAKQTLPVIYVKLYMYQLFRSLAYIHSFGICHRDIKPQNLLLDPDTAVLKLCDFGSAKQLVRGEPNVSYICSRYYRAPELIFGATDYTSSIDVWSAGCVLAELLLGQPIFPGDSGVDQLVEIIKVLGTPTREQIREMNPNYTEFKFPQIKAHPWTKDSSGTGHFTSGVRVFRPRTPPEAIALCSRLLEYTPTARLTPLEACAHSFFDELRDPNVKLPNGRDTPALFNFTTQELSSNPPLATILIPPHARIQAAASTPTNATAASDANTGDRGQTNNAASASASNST

Binder: KEAPPAPPQ[pS]PF [L803F, Lys-Glu-Ala-Pro-Pro-Ala-Pro-Pro-Gln-phosphorylated Ser-Pro-Phe]
- IC50, in vitro kinase assay: ~150 µM
- in vitro kinase assays with GSK-3β in the presence of L803 or L803F (200 µM each); inhibition relative to L803: ~50 % relatively to L803
